Measurements reported in FireProtDB (doi:10.1073/pnas.91.22.10325).

Settings: Equus caballus, pH 1.8, Thermal, HCl 20 mM, reversible: yes

Chain of Cytochrome c wild type, P00004 (P00004 whole entry): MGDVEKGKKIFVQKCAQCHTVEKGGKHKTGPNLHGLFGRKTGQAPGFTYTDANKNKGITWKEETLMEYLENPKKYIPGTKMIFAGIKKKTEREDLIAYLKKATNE

Cytochrome c wild type, P00004
Tm (CD, NaClO4 10 mM): 25.8 °C
heat capacity change of unfolding (CD, NaClO4 10 mM): 0.43 kcal/mol/K
unfolding enthalpy (van 't Hoff) (CD, NaClO4 10 mM): 28.2 kcal/mol
Tm (CD, NaClO4 20 mM): 37 °C
heat capacity change of unfolding (CD, NaClO4 20 mM): 0.43 kcal/mol/K
unfolding enthalpy (van 't Hoff) (CD, NaClO4 20 mM): 32.5 kcal/mol
Tm (CD, NaClO4 50 mM): 47 °C
heat capacity change of unfolding (CD, NaClO4 50 mM): 0.43 kcal/mol/K
unfolding enthalpy (van 't Hoff) (CD, NaClO4 50 mM): 38 kcal/mol
Tm (DSC, NaClO4 20 mM): 34.4 °C
heat capacity change of unfolding (DSC, NaClO4 20 mM): 0.31 kcal/mol/K
unfolding enthalpy (calorimetric) (DSC, NaClO4 20 mM): 32.3 kcal/mol
unfolding enthalpy (van 't Hoff) (DSC, NaClO4 20 mM): 31.8 kcal/mol
Tm (DSC, NaClO4 30 mM): 40 °C
heat capacity change of unfolding (DSC, NaClO4 30 mM): 0.31 kcal/mol/K
unfolding enthalpy (calorimetric) (DSC, NaClO4 30 mM): 31.4 kcal/mol
unfolding enthalpy (van 't Hoff) (DSC, NaClO4 30 mM): 31.4 kcal/mol
Tm (DSC, NaClO4 40 mM): 42.6 °C
heat capacity change of unfolding (DSC, NaClO4 40 mM): 0.31 kcal/mol/K
unfolding enthalpy (calorimetric) (DSC, NaClO4 40 mM): 34.9 kcal/mol
unfolding enthalpy (van 't Hoff) (DSC, NaClO4 40 mM): 34.9 kcal/mol
Tm (DSC, NaClO4 50 mM): 44.1 °C
heat capacity change of unfolding (DSC, NaClO4 50 mM): 0.31 kcal/mol/K
unfolding enthalpy (calorimetric) (DSC, NaClO4 50 mM): 33.7 kcal/mol
unfolding enthalpy (van 't Hoff) (DSC, NaClO4 50 mM): 33.7 kcal/mol
